Data: PMC12102760 (2025)
Values belong to the binder of their own block, whether it stands above or below them.

Experiments:
[1] = biological target: T1, EphA2 extracellular domain (ECD) (human, UniProt P29317 24-537); test: SPR
[2] = biological target: T1, EphA2 extracellular domain (ECD); test: SPR; remark: listed apart in the source

T1 sequence (P29317 24-537): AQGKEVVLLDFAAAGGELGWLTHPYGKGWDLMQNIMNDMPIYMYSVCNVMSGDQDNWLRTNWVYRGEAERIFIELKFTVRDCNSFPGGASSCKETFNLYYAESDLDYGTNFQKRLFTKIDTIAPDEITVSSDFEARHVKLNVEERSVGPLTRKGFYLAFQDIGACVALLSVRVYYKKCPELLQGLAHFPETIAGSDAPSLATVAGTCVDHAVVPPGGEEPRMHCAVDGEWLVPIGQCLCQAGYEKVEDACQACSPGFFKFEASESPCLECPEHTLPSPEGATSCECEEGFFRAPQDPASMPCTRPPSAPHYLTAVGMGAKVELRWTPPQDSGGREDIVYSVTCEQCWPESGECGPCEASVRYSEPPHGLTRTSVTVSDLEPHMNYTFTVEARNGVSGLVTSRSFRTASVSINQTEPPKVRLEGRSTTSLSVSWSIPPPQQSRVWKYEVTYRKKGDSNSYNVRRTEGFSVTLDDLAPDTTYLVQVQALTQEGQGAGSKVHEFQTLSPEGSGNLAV

koff [1]: 7.8e-05 s⁻¹
Kd [2]: 0.26 nM
B1: Fab F1 (Fab, V domains shown)
VH: EVQLVESGGGLVQPGGSLRLSCAASGFDSGAYLRHWVRQAPGKGLEWVASIYPSYGYTSYADSVKGRFTISADTSKNTAYLQMNSLRAEDTAVYYCARSAASYYGYWHWYHFSPGMDYWGQGTLVTVSS
VL: DIQMTQSPSSLSASVGDRVTITCRASQSVSSAVAWYQQKPGKAPKLLIYSASDLYSGVPSRFSGSRSGTDFTLTISSLQPEDFATYYCQQYVSGGWLITFGQGTKVEIK

koff [1]: 0.00019 s⁻¹
Kd [2]: 0.21 nM
B2: Fab C1 (Fab, V domains shown)
VH: EVQLVESGGGLVQPGGSLRLSCAASGFTIYYSSMHWVRQAPGKGLEWVASISSYYGYTYYADSVKGRFTISADTSKNTAYLQMNSLRAEDTAVYYCARYYAMDYWGQGTLVTVSS
VL: DIQMTQSPSSLSASVGDRVTITCRASQSVSSAVAWYQQKPGKAPKLLIYSASSLYSGVPSRFSGSRSGTDFTLTISSLQPEDFATYYCQQYYGYGGYPITFGQGTKVEIK

koff [1]: 7.2e-05 s⁻¹
Kd [2]: 0.44 nM
B3: Fab L1 (Fab, V domains shown)
VH: EVQLVESGGGLVQPGGSLRLSCAASGFTISSSYIHWVRQAPGKGLEWVASISSYYGSTSYADSVKGRFTISADTSKNTAYLQMNSLRAEDTAVYYCARSHYSVWWGWHSVSYYAAFDYWGQGTLVTVSS
VL: DIQMTQSPSSLSASVGDRVTITCRASQSVSSAVAWYQQKPGKAPKLLIYSASSLYSGVPSRFSGSRSGTDFTLTISSLQPEDFATYYCQQGSAPFTFGQGTKVEIK
